T1: Cas5d from B. halodurans, His6-tagged, co-expressed with Csd1, Csd2 and pre-crRNA (B. halodurans, UniProt Q9KFY3 1-236)
T1 sequence: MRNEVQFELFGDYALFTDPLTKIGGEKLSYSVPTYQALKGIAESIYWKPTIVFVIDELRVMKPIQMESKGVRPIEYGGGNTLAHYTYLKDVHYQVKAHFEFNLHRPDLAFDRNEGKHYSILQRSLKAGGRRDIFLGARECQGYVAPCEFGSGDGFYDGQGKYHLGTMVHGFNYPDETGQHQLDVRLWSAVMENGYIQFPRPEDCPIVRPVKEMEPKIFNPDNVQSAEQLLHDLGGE

B1: Csd2 from B. halodurans, Strep-II-tagged, co-expressed with Cas5d, Csd1 and pre-crRNA (natural protein, UniProt Q9KFY1 1-283, looked up)
chain: MTILDHKIDFAVILSVTKANPNGDPLNGNRPRQNYDGHGEISDVAIKRKIRNRLLDMEEPIFVQSDDRKADSFKSLRDRADSNPELAKMLKAKNASVDEFAKIACQEWMDVRSFGQVFAFKGSNLSVGVRGPVSIHTATSIDPIDIVSTQITKSVNSVTGDKRSSDTMGMKHRVDFGVYVFKGSINTQLAEKTGFTNEDAEKIKRALITLFENDSSSARPDGSMEVHKVYWWEHSSKLGQYSSAKVHRSLKIESKTDTPKSFDDYAVELYELDGLGVEVIDGQ
B2: Csd1 from B. halodurans, co-expressed with Cas5d, Csd2 and pre-crRNA (natural protein, UniProt Q9KFY2 1-627, looked up)
chain: MSWLLHLYETYEANLDQVGKTVKKGEDREYTLLPISHTTQNAHIEVTLDEDGDFLRAKALTKESTLIPCTEEAASRSGSKVAPYPLHDKLSYVAGDFVKYGGKIKNQDDAPFDTYIKNLGEWANSPYATEKVKCIYTYLKKGRLIEDLVDAGVLKLDENQQLIEKWEKRYEELLGEKPAIFSSGATDQASAFVRFNVFHPESIDDVWKDKEMFDSFISFYNDKLGEEDICFVTGNRLPSTERHANKIRHAADKAKLISANDNSGFTFRGRFKTSREAVGISYEVSQKAHNALKWLIHRQSKSIDDRVFLVWSNDNSLVPNPDEDAVDIMKHANRELERDPDTGQIFAGEVKKAIGGYRSDLNYQPEVHILVLDSATTGRMAVLYYRSLNKELYLNRLEAWHDSCAWEHRYRRDEKEFISFYGAPATKDIAFAAYGPRASEKVIKDLMERMLPCIVDGRRVPKDIVRSAFQRASNPVSMERWEWEKTLSITCALIRKMHIEQKEEWGVPLDKSSTDRSYLFGRLLAVADVLERGALGKDETRATNAIRYMNSYSKNPGRTWKTIQESLQPYQAKLGTKATYLSKLVDEIGDQFEPGDFNNNPLTEQYLLGFYSQRRELYKKKEEETNQ

Biological target: T1, Cas5d from B. halodurans, His6-tagged, …
Experiment: SEC

Row | stoichiometry N | Binder
1 | ~6 copies in the complex (with two copies of Cas5d and one copy of Csd1) | B1
2 | ~1 copies in the complex (with two copies of Cas5d and six copies of Csd2) | B2

From publication PMC3479641 (Structure (London, England : 1993), 2012)
